The results in this text go back to paper PMC5896956, “Small molecule induced oligomerization, clustering and clathrin-independent endocytosis of the dopamine transporter” (eLife, 2018).

This data set concerns the molecule itself. Kind of data set: SDS-resistant oligomers on SDS-PAGE and western blot; PAE cells stably expressing the tagged transporter, vehicle (DMSO) or 20 µM AIM-100 for 2 hr at 37°C (also after cocaine, dopamine, amphetamine, modafinil, KRCA-0008, CHC siRNA, at 4°C or 20°C); lysis in TGH buffer, Laemmli buffer (2% SDS, 5% β-mercaptoethanol) 5 min at 95°C, 7.5% SDS-PAGE, blot with GFP antibody; oligomers (O) against monomers (M). For orientation: In western blotting, separated proteins are transferred to a membrane and probed.

B1: YFP-DAT additionally tagged with an extracellular hemagglutinin (HA) epitope (YFP-HA-DAT) (natural protein, human, UniProt Q01959 1-620, looked up)
chain: MSKSKCSVGLMSSVVAPAKEPNAVGPKEVELILVKEQNGVQLTSSTLTNPRQSPVEAQDRETWGKKIDFLLSVIGFAVDLANVWRFPYLCYKNGGGAFLVPYLLFMVIAGMPLFYMELALGQFNREGAAGVWKICPILKGVGFTVILISLYVGFFYNVIIAWALHYLFSSFTTELPWIHCNNSWNSPNCSDAHPGDSSGDSSGLNDTFGTTPAAEYFERGVLHLHQSHGIDDLGPPRWQLTACLVLVIVLLYFSLWKGVKTSGKVVWITATMPYVVLTALLLRGVTLPGAIDGIRAYLSVDFYRLCEASVWIDAATQVCFSLGVGFGVLIAFSSYNKFTNNCYRDAIVTTSINSLTSFSSGFVVFSFLGYMAQKHSVPIGDVAKDGPGLIFIIYPEAIATLPLSSAWAVVFFIMLLTLGIDSAMGGMESVITGLIDEFQLLHRHRELFTLFIVLATFLLSLFCVTNGGIYVFTLLDHFAAGTSILFGVLIEAIGVAWFYGVGQFSDDIQQMTGQRPSLYWRLCWKLVSPCFLLFVVVVSIVTFRPPHYGAYIFPDWANALGWVIATSSMAMVPIYAAYKFCSLPGSFREKLAYAIAPEKDRELVDRGEVRQFTLRHWLKV
notes: Dopamine transporter (DAT), human; Monomer runs at 95 kDa, SDS-resistant oligomer at about 290 kDa; also called dopamine transporter; human DAT; source: PAE cells, stably expressed, in lysate
B1: the “fold increase of the fraction of the ~290 kDa oligomer species with AIM-100 against vehicle” value is over 5 fold and the “stoichiometry N” value was about 3.

The stoichiometry N is the number of molecules, sites or subunits per partner or assembly.
